Data as given in patent US20230159663A1 (VIRTUOSO BINCO, published 2023).
Where a chain is given by its changes, count along the chain named. Names may count otherwise.

B1: VIR47 IgG1 HC G99A (antibody, V domains shown)
VH: EVQLLESGGGLVQPGGSLRLSCAASGFTFSNFAMSWVRQAPGKGLEWVSTISASGGRTFYADSVKGRITISRDNSKNTLFLQMNGLRAEDTAVYYCAKEGSFAEGVDPWGQGTLVTVSS
VL: SYEMTQPPSVSVSPGQTARITCSGDALPKKYAYWYQQKSGQAPVLVIYEDNKRPSGIPERFSGSSSGTMATLTISGAQVEDEADYYCYSTDISGNHWVFGGGTELTVLG
notes: Alanine-scan variant of the IgG1 form of VIR47; position in Kabat-style numbering, not the linear count on the entry
B2: VIR47 IgG1 HC G100aA (antibody, V domains shown)
VH: B1 VH with A103G, G105A
VL: B1 VL
notes: as for B1
B3: mAb-28 (chimeric anti-EpCAM antibody) (antibody, V domains shown)
VH: QVQLQQSGAELARPGASVKVSCKASGYTFTSYGISWVKQRTGQGLEWIGEIYPTRDYTYYNENFKGKATLTADKSSTTAYMELRSLTSEDSAVYFCARDGPPFAYWGQGTLVTVSA
VL: DIVMTQAAFSNPVTLGTSASISCRSSKSLLHSNGFTYLHWYLQKPGQSPQLLIYQMSSLASGVPDRFSSSGSGTDFTLRISRVEAEDVGVYYCAQNLELPRTFGGGTKLEIK
B4: mAb-36 (chimeric anti-EpCAM antibody) (antibody, V domains shown)
VH: QVQVQQSGPELVKPGTSVKISCKTSGYTFTDYYITWVKQRPGQGLEWIGWIFPGRGISFYNENFKDKATLTVDKSSNTAFMLLSSLTSEDSAVYFCARWGGTWFAYWGQGTLITVSA
VL: EIVLTQSPAITAAFLGQKVTITCSASSSVSYIHWYQQKSDTSPKPWIYEISKLASGVPARFSGSGSGTSYSLTISSMEAEDAAIYYCQQWNYPLITFGGGTKLEIK
B5: mAb-39 (chimeric anti-EpCAM antibody) (antibody, V domains shown)
VH: QIQLVQSGPELKKPGETVKISCKASGYTFTSYGVTWVKQAPGKGLKWMGWINTYSGVPTYADDFKGRFAFSLETSASTAYLQINNLKNEDTATYFCARSHSNYDFWGQGTTLTVSS
VL: DIVMTQSQKFMSTTVGDRVSITCQASQNVGTDVGWYQQKPGQSPKLLIYSASNRYTGVPDRFTGSGSGTDFTLTISNMQSEDLADYFCQQYSSYPRTFGGGTKLEIK
B6: mAb-33 (chimeric anti-EpCAM antibody) (antibody, V domains shown)
VH: EVLLQQSVADLVRPGASVKLSCTASGLNIKNTYIHWVKQMPEQGLEWIGRIGPANGNTKYAPKFQGKATITADTSSDTAYLQLSSLTSEDTAIYYCALAYYRIYWGQGTTLTVSS
VL: DIVLTQSPASLAVSLGQRATISCRASESVDNSGISFMHWYQQKPGQSPKLLIYRASNLESGIPARFSGSGSRTDFTLTINPVETDDVATYYCQQSYENPWTFGGGTKLEIK
B7: mAb-35 (chimeric anti-EpCAM antibody) (antibody, V domains shown)
VH: EVQLQQSVAELVRPGASVKLSCTASGFNIKNTYMHWVKQRPEQGLEWIGRIAPANGNTKYAPKFQDKATITANTSSNTAYLQLGSLTSEDTAIYYCAFIYQLPYWGQGTTLTVSS
VL: B6 VL with S32Y, Y40F, S47P, Y53F, N57S, E97K, N98D, G105A
B8: mAb-37 (chimeric anti-EpCAM antibody) (antibody, V domains shown)
VH: B7 VH with A61D, N73D, T74S, Q82H, G84S, T109S
VL: B6 VL with A9T, S32Y, S47P, N57S, T84S, E97K, N98D, G105A
B9: mAb-4 (chimeric anti-EpCAM antibody) (antibody, V domains shown)
VH: QVQLQQPGAELVRPGTSVKLSCKASGYTFTSYWMHWIKQRPGQGLEWIGVIDPSNSYSNYNQKFKGRATLTVDTYSSTAYMQLSSLTSEDSAVYYCARPYNHGRDAMDYWGQGTSVTVSS
VL: DVLLTQTPLSLSVSLGDQASISCRSSQSFVHINGNTYLEWFLQKPGLSPKLLIYKVSNRFSGVPDRFSGSGSGTDFTLKISRVEAEDLGIYYCFQGSHVPLTFGAGTKLELK
B10: mAb-30 (chimeric anti-EpCAM antibody) (antibody, V domains shown)
VH: EVQLQQSGPELVKPGASVKISCKASGYTFTDYYMSWVKQSHGRSLEWIGEINPDNGDTSHNQKFKGKATMTVDKSSGTGNMEIRSLTSEDAGIYYCTSYFSYWGQGTLVTVSA
VL: DVLMTQSPLSLPVSLGDQASISCRSSQSIVDSDGSTYLEWYLQKPGQSPKLLIYKVSNRFSGVPDRFSGSGSGTDFTLKISGVEAEDLGVYYCFQGSHVPYTFGGGTKLEIK
B11: mAb-2 (chimeric anti-EpCAM antibody) (antibody, V domains shown)
VH: EVQLVESGGGLVQPKGSLKLSCAASGFTFNTYAMHWVRQAPGKGLEWVARIRSKTYNYATFYADSVKDRFTISRDDSQSMLYLQMNNLKTEDTAMFYCVTGSSYAMDYWGQGTSVTVSS
VL: DILLTQSPAILSVSPGERVSFSCRASQSIGTSLHWYQQRTNGSPRLLIKYASESISGIPSRFSGSGSGTDFTLSINSVESEDIADYYCQQSNSWPYTFGGGTKLEIK
notes: also called EpCAM Mab2
B12: mAb-8 (chimeric anti-EpCAM antibody) (antibody, V domains shown)
VH: QVQLQQSGAELARPGASVQLSCKASGYTFTSYGISWLKQRAGQGLEWIGEIYPRSDNTYYNEKFKGKATLTADKSSSTAYMELRSLTSEDSAVYFCARRAGMWFAYWGQGTLVTVSA
VL: B4 VL with F14S, Y31D, I32M, D40G, A59T, Q89H, N91S, I95M
notes: also called EpCAM Mab8
B13: mAb-1 (chimeric anti-EpCAM antibody) (antibody, V domains shown)
VH: QVQLQQSGPELVKPGTSVKLSCRASGYTFTSYDINWVKQRPGQGLEWIGWIYPRDGSTKYNERFKGKATLTVDTSSSTAYMEFHTLTSEDSAVYFCARDPYYYGTIYGYFDVWGTGTTVTVSS
VL: DIQMTQSPSSLSASLGERVSLTCRASQDIGNSLNWLQQKPDGTIKRLIYVTSRLDSGVPKRFSGSRSGSDYFFTISSLESEDFADYYCLQYASSPFTFGSGTKLEIK
notes: also called EpCAM Mab1
B14: mAb-21 (chimeric anti-EpCAM antibody) (antibody, V domains shown)
VH: DVQLQESGPGLVKPSQSLSLTCTVTGYSITSDFAWNWIRQFPGNKLEWVGYITYSGTTSYNPSLKSRISITRDTSKNQFFLQLSSVTTEDTATYYCARSFHFFAYGFAYWGQGTLVTVSA
VL: not shown
B15: Bi-1 (3C-KIH EpCAM × CD47 scFv bispecific antibody) (bispecific antibody, human IgG1)
chain: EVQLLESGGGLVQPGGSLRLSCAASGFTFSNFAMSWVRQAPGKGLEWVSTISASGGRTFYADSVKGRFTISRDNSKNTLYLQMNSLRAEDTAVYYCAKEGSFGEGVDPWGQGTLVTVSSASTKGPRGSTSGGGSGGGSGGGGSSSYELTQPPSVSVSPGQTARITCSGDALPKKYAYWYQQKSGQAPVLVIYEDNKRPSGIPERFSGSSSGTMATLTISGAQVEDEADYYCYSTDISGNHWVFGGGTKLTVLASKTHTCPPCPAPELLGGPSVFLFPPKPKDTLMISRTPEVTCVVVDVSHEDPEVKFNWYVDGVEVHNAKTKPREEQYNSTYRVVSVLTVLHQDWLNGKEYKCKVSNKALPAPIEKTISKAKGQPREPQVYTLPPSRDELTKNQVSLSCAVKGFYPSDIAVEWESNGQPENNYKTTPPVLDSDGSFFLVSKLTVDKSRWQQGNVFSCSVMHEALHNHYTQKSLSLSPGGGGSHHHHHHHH
heavy: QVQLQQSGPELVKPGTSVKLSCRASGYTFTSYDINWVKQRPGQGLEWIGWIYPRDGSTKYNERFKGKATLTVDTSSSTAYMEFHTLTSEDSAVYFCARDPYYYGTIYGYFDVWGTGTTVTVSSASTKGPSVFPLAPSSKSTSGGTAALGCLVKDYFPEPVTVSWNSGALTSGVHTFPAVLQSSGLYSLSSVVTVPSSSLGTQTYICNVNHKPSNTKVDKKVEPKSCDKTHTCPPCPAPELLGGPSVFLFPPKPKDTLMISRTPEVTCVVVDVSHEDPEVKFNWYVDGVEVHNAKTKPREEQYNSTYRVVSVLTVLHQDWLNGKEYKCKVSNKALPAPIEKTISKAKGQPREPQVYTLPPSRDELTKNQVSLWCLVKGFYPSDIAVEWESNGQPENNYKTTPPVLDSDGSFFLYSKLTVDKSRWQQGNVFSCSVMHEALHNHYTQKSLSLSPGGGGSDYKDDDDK
VL: B13 VL
notes: Three-chain knob-into-hole format
B16: VIR47.V7 hIgG1 (antibody, V domains shown)
VH: B1 VH with F80Y, G85S, A103G
VL: B1 VL with E104K
notes: HC: F79Y, G82bS; LC: E103K (Kabat) against VIR47; already contained in the entries
B17: VIR47 hIgG4-SPL (antibody)
heavy: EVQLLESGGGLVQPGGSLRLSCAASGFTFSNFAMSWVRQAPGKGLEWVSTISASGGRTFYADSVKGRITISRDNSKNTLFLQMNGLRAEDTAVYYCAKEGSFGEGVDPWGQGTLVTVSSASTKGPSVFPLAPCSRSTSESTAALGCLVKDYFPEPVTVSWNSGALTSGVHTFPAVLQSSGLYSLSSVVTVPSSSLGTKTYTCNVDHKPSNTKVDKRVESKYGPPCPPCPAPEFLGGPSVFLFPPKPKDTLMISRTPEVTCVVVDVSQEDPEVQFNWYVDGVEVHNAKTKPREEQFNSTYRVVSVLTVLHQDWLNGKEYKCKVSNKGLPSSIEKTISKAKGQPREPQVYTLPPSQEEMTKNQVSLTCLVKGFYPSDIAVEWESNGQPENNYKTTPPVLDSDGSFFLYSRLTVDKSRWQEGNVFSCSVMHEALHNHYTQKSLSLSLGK
light: SYEMTQPPSVSVSPGQTARITCSGDALPKKYAYWYQQKSGQAPVLVIYEDNKRPSGIPERFSGSSSGTMATLTISGAQVEDEADYYCYSTDISGNHWVFGGGTELTVLGQPKAAPSVTLFPPSSEELQANKATLVCLISDFYPGAVTVAWKADSSPVKAGVETTTPSKQSNNKYAASSYLSLTPEQWKSHRSYSCQVTHEGSTVEKTVAPTECS
notes: Anti-CD47 from OmniRat rats on a human IgG4 framework with S228P; also called VIR47 mAb; IgG4 form

Biological target: T1, human CD47 extracellular domain with C-terminal 6×His tag (human, UniProt Q08722 19-139, limits assumed)
T1 construct: extracellular domain; Made in Expi293F cells (section 5.4.1); also called recombinant CD47; huCD47
Experiment: ELISA on human CD47; EC50 given as a bin, limits from the table's legend; upper limit of bin B

Binder	EC50 [pM]
B1	≤ 400
B2	≤ 400

Biological target: T2, human EpCAM extracellular domain with C-terminal His tag (Novoprotein #C339) (human, UniProt P16422 24-265)
T2 construct: extracellular domain; Bought protein
T2 sequence (looked up): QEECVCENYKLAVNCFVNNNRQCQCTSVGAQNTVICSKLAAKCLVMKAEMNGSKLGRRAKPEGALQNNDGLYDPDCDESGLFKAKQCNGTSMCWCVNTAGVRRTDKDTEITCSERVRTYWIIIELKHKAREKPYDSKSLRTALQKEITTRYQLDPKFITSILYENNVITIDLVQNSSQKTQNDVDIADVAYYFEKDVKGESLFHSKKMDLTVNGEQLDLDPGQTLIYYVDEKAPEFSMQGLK
Experiment: ELISA on human EpCAM

Binder	binding result
B3	binds
B4	binds
B5	binds
B6	binds
B7	binds
B8	binds
B9	binds
B10	binds

Biological target: T3, human EpCAM on cells (CHO-K1 cells transfected with human EpCAM; EpCAM+ tumour cell lines) (human, UniProt P16422 24-314)
T3 construct: whole, on cells; also called CHO-K1-huEpCAM cells; cell-surface EpCAM
T3 sequence (looked up): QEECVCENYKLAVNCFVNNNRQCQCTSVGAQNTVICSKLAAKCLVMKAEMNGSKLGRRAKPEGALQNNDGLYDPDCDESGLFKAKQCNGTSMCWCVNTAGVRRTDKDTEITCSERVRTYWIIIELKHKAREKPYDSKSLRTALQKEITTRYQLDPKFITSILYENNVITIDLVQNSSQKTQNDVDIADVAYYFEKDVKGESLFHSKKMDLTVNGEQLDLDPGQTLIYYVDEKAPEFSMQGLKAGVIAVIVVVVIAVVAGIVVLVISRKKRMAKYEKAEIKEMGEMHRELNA
Experiment: flow cytometry on MCF-7, Caco-2 and A431 cells

Binder	EC50 [pM]
B11	< 20000
B12	< 20000
B13	< 20000
B14	< 20000

Biological target: T2, human EpCAM extracellular domain with …
Experiment: ELISA, plate coated with human EpCAM

Binder	binding result	EC50 (read off the curve) [pM]
B15	binds	
B13		~100

Biological target: T1, human CD47 extracellular domain with …
Experiment: ELISA, plate coated with recombinant huCD47

Binder	binding result
B15	binds
B13	no binding (tested: 100 nM)

Biological target: T4, CD47 expressed on human red blood cells (human, UniProt Q08722 19-323)
T4 construct: whole, on cells; also called RBCs; RBC
Experiment: flow cytometry on human red blood cells

Binder	fold higher concentration required for RBC binding, against CD47 BMK-1 [fold]
B16	> 20
B17	> 20

Biological target: T1, human CD47 extracellular domain with …
Experiment: ELISA on human CD47; EC50 given as a bin, limits from the table's legend; lower limit of bin B

Binder	EC50 [pM]
B1	≥ 150
B2	≥ 150

Biological target: T3, human EpCAM on cells (CHO-K1 cells …)
Experiment: flow cytometry on CHO-K1 cells transfected with human EpCAM

Binder	binding result
B3	binds
B4	binds
B5	binds
B6	binds
B7	binds
B10	binds
